Results reported in US20190225691A1 (SHANGHAI HENLIUS BIOTECH, published 2019).

Columns and labels:
human PD-L1 ECD-His [1] = target: T1, human PD-L1 ECD-His (human, UniProt Q9NZQ7 19-238); assay: BLI, ratio of KD to ref-1
T1 construct: extracellular domain; Analyte in all SPR and BLI runs; also called hPD-L1_ECD-His; hPD-L1 ECD-His; not shown: His tag
Experimental: (§1) Briefly, black 96-well plate was prepared with columns containing 200 μL/well of reagents required for determination of affinity. In general, Octet SA sensors were first placed in wells containing 1×Kinetics Buffer (PBS, 0.1% BSA, 0.02% Tween-20, pH 7.4) for 180 seconds to establish a baseline. […] Sensors were then regenerated by 3×5 second incubations in Regeneration Buffer (10 mM Glycine, pH 1.5) followed by a 5 second incubation in 1×Kinetics Buffer each time. Regeneration was repeated before measurement of each association/dissociation cycle. Sensors were then placed in fresh 1×Kinetics Buffer for 180 seconds to establish a baseline. Association was then measured by incubating the sensors for 5 minutes in wells containing hPD-L1-His followed by transferring to wells containing 1×Kinetics Buffer for 10 minutes to measure dissociation. Kinetics (ka, kd, and […] were measured by global fitting four association/dissociation cycles of data obtained from 1:3 serial dilutions of hPD-L1-His from 38.28 nM to 1.42 nM (one association/dissociation cycle for one concentration) with a 1:1 Langmuir binding model. All data were analyzed with Octet Data Analysis Software v.9.0 and representative of two independent experiments performed in duplicate.
(§2) All the data are representative of two independent experiments performed in duplicate.

human PD-L1 ECD-His [2] = target: T1, human PD-L1 ECD-His; assay: BLI Octet RED96, biotinylated antibody on SA sensor, hPD-L1-His analyte, 1:1 fit
Experimental: as §1, §2

[3] = target: T2, recombinant cynomolgus monkey PD-L1_ECD Fc-fusion protein (Sino Biological Inc.) (cynomolgus monkey, UniProt G7PSE7 19-238); assay: ELISA: cynomolgus monkey PD-L1_ECD/Fc coated (9 ng/well), peroxidase-labeled goat anti-human IgG F(ab)'2, TMB, OD450
T2 construct: Bought
Experimental: The recombinant cynomolgus monkey PD-L1_ECD Fc-fusion proteins were purchased from Sino Biological Inc. PD-L1_ECD/Fc (9 ng per well) were immobilized onto 96-well assay plat by incubating overnight at 4° C. Nonspecific binding sites were blocked using 5% skim milk in PBS for one hour at room temperature. After washing plates three times with PBST, indicated concentrations of anti-PD-L1 antibodies and HLX01 (negative control) were incubated with the immobilized proteins for one hour at room temperature. The plates were washed three times with PBST and then incubated for one hour at room temperature with peroxidase-labeled goat anti-human IgG F(ab)′2 (Jackson ImmunoResearch Laboratories) diluted 1/10,000 in PBS. After washing, plates were developed using TMB (eBioscience). The absorbance was read at the wavelength of 450 nm by Varioskan LUX microplate reader (Thermo Scientific).
HLX01 (anti-CD20 mAb) was used as the negative control.

human PD-L1 ECD-His [4] = target: T1, human PD-L1 ECD-His; assay: SPR, 25 C, antibody captured by anti-human IgG Fc, hPD-L1_ECD-His analyte, 1:1 fit
Experimental: Experiments were carried out at 25° C., and measurements were made with serial dilutions of hPD-L1_ECD-His from 55.4 nM to 11.1 nM passing over the captured antibodies in HBS-P+ buffer supplemented with 0.1% (w/v) BSA with a flow rate of […]. All data were analyzed with the evaluation software and curves were fit with a 1:1 Langmuir binding model. Data are representative of two independent experiments performed in duplicate.

[5] = target: T3, human PD-L1 on cells (PHA-activated human T cells); PD-L1-transfected CHO-S cells; A375 melanoma cells; … (human, UniProt Q9NZQ7 19-290); assay: flow cytometry on PHA-activated human CD3+ T cells, FITC-labeled anti-human IgG Fcγ, MFI
T3 construct: whole, on cells; also called PD-L1 expressing T cells; PD-L1 expressing CHO-S cells
Experimental: Human T cells were isolated from PBMC using MagniSortTM Human T Cell Enrichment Kit (eBioscience). Isolated T cells were activated by 5 μg/mL phytohemagglutinin (PHA) for 3 days to stimulate the PD-L1 expression. Activated T cells were collected and incubated in FACS buffer (PBS with 2% FBS) with human Fc blocker (eBioscience) for 20 minutes at 4° C. Binding of anti-PD-L1 monoclonal antibody was assessed by incubating the activated T cells with the serial-diluted antibodies in FACS buffer. The cells were washed with flow buffer and the binding was detected with a FITC-labeled rabbit anti-human IgG FcγAb. Cells were also stained with mouse anti-human CD3 PE-Cy7 (eBioscience) for gating CD3-positive T cells. Flow cytometric analyses were performed using the Cytomics FC 500 (Beckman Coulter Inc.).

[6] = target: T3, human PD-L1 on cells (PHA-activated …); assay: flow cytometry blocking assay: PD-L1 expressing CHO-S cells incubated with antibody, then biotin-labeled PD-1-Fc and streptavidin-PE; MFI of bound PD-1
Experimental: PD-L1 expressing CHO-S cells were suspended in FACS buffer (PBS with 4% FBS). Various concentrations of tested antibodies were added to the cell suspension (3.5E5 cells/well) and incubated at 4° C. for 30 minutes. […] The cells were washed and then stained with streptavidin-PE at 4° C. for 30 minutes. Flow cytometric analyses were performed using the Cytomics FC 500 (Beckman Coulter Inc.).
Anti-PD-L1 reference antibody and Avastin were used as the positive and negative control, respectively.

human PD-L1 ECD-His [7] = target: T1, human PD-L1 ECD-His; assay: SPR, ratio of KD to ref-1
human PD-L1 ECD-His [8] = target: T1, human PD-L1 ECD-His; assay: SPR, hPD-L1-His, PL3 variants

T3 sequence (Q9NZQ7 19-290): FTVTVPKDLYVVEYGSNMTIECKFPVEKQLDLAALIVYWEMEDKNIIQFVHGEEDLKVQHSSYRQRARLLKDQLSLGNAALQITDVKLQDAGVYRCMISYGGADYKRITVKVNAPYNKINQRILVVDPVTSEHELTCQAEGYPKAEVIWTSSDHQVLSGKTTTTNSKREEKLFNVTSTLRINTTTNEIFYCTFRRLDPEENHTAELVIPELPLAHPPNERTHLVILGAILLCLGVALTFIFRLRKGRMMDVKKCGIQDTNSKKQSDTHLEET
T1 sequence (Q9NZQ7 19-238): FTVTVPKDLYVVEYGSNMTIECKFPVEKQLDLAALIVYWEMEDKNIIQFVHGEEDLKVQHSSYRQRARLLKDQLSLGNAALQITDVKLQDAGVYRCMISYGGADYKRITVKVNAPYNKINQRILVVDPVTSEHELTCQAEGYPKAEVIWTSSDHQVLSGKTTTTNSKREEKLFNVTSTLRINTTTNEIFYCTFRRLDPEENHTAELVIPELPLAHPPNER
T2 sequence (G7PSE7 entry or part of it limits assumed): as the sequence (Q9NZQ7 19-238) above, with A33T, A34S, S62N, R68Q, Q82R, F173L, T185A, T192I, H215L counted along it

Binder	Improvement over ref-1 (human PD-L1 ECD-His [7]) [fold]	Kd (human PD-L1 ECD-His [8]) [nM]	koff (human PD-L1 ECD-His [8]) [s⁻¹]	kon (human PD-L1 ECD-His [8]) [M⁻¹ s⁻¹]	further results
PL3#7 mtIgG1 (antibody, V domains shown, Antibody was biotinylated (NHS-PEG4-biotin, sites not specified) for the Octet assay of Table 11., N297A mutant human IgG1) VH: QVQLVQSGAEVKKPGSSVKVSCKASGGTFSSYPISWVRQAPGQGLEWIGRIIPILGIANYAQKFQGRVTITADKSTSTAYMELSSLRSEDTAVYYCARSRDGYAFGAFDIWGQGTLVTVSS VL: QSVVTQPPPVSGAPGQRVTISCTGSSSNIGAGYDVHWYQQLPGTAPKLLIYGNSNRPSGVPDRFSGSKSGTSASLAITGLQAEDEADYYCQTYDSSLSARVVFGGGTKLTVLG					Improvement over ref-1 (human PD-L1 ECD-His [1]): 2.26 fold; Kd (human PD-L1 ECD-His [2]): 1.09 nM; koff (human PD-L1 ECD-His [2]): 0.000305 s⁻¹; kon (human PD-L1 ECD-His [2]): 298000 M⁻¹ s⁻¹; EC50 (read off the curve) [3]: ~0.04 µg/mL
PL15 (full-length, N297A mutant human IgG1) (antibody, V domains shown) VH: QVQLVQSGAEVKKPGSSVKVSCKASGGTFSSYTISWVRQAPGQGLEWMGRIIPILGIANYAQKFQGRVTITADKSTSTAYMELSSLRSEDTAVYYCARSRDGYSFGAFDIWGQGTLVTVSS VL: QSVLTQPPSVSGAPGQRVTISCTGYSSNIGAGYDVHWYQHLPGTAPKLLIYGNSNRPSGVPDRFSGSKSGTSASLAITGLQAEDEADYYCQSYDNSLSVSVFGGGTKLTVLG					Kd (human PD-L1 ECD-His [4]): 15 nM; koff (human PD-L1 ECD-His [4]): 0.00933 s⁻¹; kon (human PD-L1 ECD-His [4]): 645000 M⁻¹ s⁻¹; EC50 (read off the curve) [5]: ~0.03 µg/mL; IC50 (read off the curve) [6]: ~0.06 µg/mL
PL6 (full-length, N297A mutant human IgG1) (antibody, V domains shown) VH: EVQLVQSGAEVKKPGSSVKVSCKASGGTFSSYTINWVRQAPGQGLEWVGKIIPILGIADYAQMFKGRVTITADKFTSTVYMELNSLRSEDTAVYYCARGGYVGYLNAFDIWGQGTMVTVSS VL: QSVVTQPPSVSGAPGQRVTISCTGSSSNIGAGYDVHWYQQLPGTAPKLLIYGNSNRPSGVPDRFSGSKSGTSASLAITGLQAEDEADYYCQSYDSSLSGGVFGGGTKLTVLG					Kd (human PD-L1 ECD-His [4]): 11.2 nM; koff (human PD-L1 ECD-His [4]): 0.0122 s⁻¹; kon (human PD-L1 ECD-His [4]): 1.05e+06 M⁻¹ s⁻¹; IC50 (read off the curve) [6]: ~0.03 µg/mL
PL3#7 IgG1 (antibody, V domains shown, Human IgG1) VH: QVQLVQSGAEVKKPGSSVKVSCKASGGTFSSYPISWVRQAPGQGLEWIGRIIPILGIANYAQKFQGRVTITADKSTSTAYMELSSLRSEDTAVYYCARSRDGYAFGAFDIWGQGTLVTVSS VL: QSVVTQPPPVSGAPGQRVTISCTGSSSNIGAGYDVHWYQQLPGTAPKLLIYGNSNRPSGVPDRFSGSKSGTSASLAITGLQAEDEADYYCQTYDSSLSARVVFGGGTKLTVL	1.38	0.457	0.000444	997000	
PL3 IgG1 (antibody, V domains shown) VH: QVQLVQSGAEVKKPGSSVKVSCKASGGTFSSYTISWVRQAPGQGLEWMGRIIPILGIANYAQKFQGRVTITADKSTSTAYMELSSLRSEDTAVYYCARSRDGYSFGAFDIWGQGTLVTVSS VL: QSVVTQPPPVSGAPGQRVTISCTGSSSNIGAGYDVHWYQQLPGTAPKLLIYGNSNRPSGVPDRFSGSKSGTSASLAITGLQAEDEADYYCQSYDSSLSAPVVFGGGTKLTVL	0.12	5.46	0.00291	542000	
PL3 IgG2 (antibody, V domains shown, Human IgG2) VH: QVQLVQSGAEVKKPGSSVKVSCKASGGTFSSYTISWVRQAPGQGLEWMGRIIPILGIANYAQKFQGRVTITADKSTSTAYMELSSLRSEDTAVYYCARSRDGYSFGAFDIWGQGTLVTVSS VL: QSVVTQPPPVSGAPGQRVTISCTGSSSNIGAGYDVHWYQQLPGTAPKLLIYGNSNRPSGVPDRFSGSKSGTSASLAITGLQAEDEADYYCQSYDSSLSAPVVFGGGTKLTVL	0.1	6.64	0.00277	417000	
PL3#1 IgG2 (antibody, V domains shown, Human IgG2) VH: QVQLVQSGAEVKKPGSSVKVSCKASGGTFSSYRISWVRQAPGQGLEWMGRIIPILGIANYAQKFQGRVTITADKSTSTAYMELSSLRSEDTAVYYCARSRDGYSVGAFDSWGQGTLVTVSS VL: QSVVTQPPPVSGAPGQRVTISCTGSSSNIGAGYDVHWYQQLPGTAPKLLIYGNSRRPSGVPDRFSGSKSGTSASLAITGLQAEDEADYYCQTYDSSLSRPVVFGGGTKLTVL	0.85	0.74	0.00067	931000	
PL3#1 mtIgG1 (N297A) (antibody, V domains shown, N297A mutant human IgG1) VH: QVQLVQSGAEVKKPGSSVKVSCKASGGTFSSYRISWVRQAPGQGLEWMGRIIPILGIANYAQKFQGRVTITADKSTSTAYMELSSLRSEDTAVYYCARSRDGYSVGAFDSWGQGTLVTVSS VL: QSVVTQPPPVSGAPGQRVTISCTGSSSNIGAGYDVHWYQQLPGTAPKLLIYGNSRRPSGVPDRFSGSKSGTSASLAITGLQAEDEADYYCQTYDSSLSRPVVFGGGTKLTVL	1.73	0.366	0.000395	1.1e+06	
PL3#7 IgG2 (antibody, V domains shown, Human IgG2) VH: QVQLVQSGAEVKKPGSSVKVSCKASGGTFSSYPISWVRQAPGQGLEWIGRIIPILGIANYAQKFQGRVTITADKSTSTAYMELSSLRSEDTAVYYCARSRDGYAFGAFDIWGQGTLVTVSS VL: QSVVTQPPPVSGAPGQRVTISCTGSSSNIGAGYDVHWYQQLPGTAPKLLIYGNSNRPSGVPDRFSGSKSGTSASLAITGLQAEDEADYYCQTYDSSLSARVVFGGGTKLTVL	1.81	0.349	0.000327	995000	
PL3#7 IgG4 (antibody, V domains shown, Human IgG4) VH: QVQLVQSGAEVKKPGSSVKVSCKASGGTFSSYPISWVRQAPGQGLEWIGRIIPILGIANYAQKFQGRVTITADKSTSTAYMELSSLRSEDTAVYYCARSRDGYAFGAFDIWGQGTLVTVSS VL: QSVVTQPPPVSGAPGQRVTISCTGSSSNIGAGYDVHWYQQLPGTAPKLLIYGNSNRPSGVPDRFSGSKSGTSASLAITGLQAEDEADYYCQTYDSSLSARVVFGGGTKLTVL	1.97	0.321	0.000362	1.14e+06	
PL8 (full-length, N297A mutant human IgG1) (antibody, V domains shown) VH: EVQLVQSGAEVKKPGSSVKVSCKASGGTFSSYAISWVRQAPGQGLEWMGRIIPIFGTANYAQKFQGRVTITADESTSTAYMELSSLRSEDTAVYYCAREGVLDAFDIWGQGTMVTVSS VL: LSSELTQDPAVSVALGQTVRITCQGDSLRSYYVSWYQQKPGQAPVLVLYGKNNRPSGIPDRFSGSSSGSTASLTITGAQAEDEADYYCNSRDSTGNLLRVFGGGTKLTVLG					Kd (human PD-L1 ECD-His [4]): 8.85 nM; koff (human PD-L1 ECD-His [4]): 0.00348 s⁻¹; kon (human PD-L1 ECD-His [4]): 382000 M⁻¹ s⁻¹
